Reference: patent publication US6365126

Molecular target: H-Ras (UniProt P01112)
Sequence (P01112 whole entry, looked up): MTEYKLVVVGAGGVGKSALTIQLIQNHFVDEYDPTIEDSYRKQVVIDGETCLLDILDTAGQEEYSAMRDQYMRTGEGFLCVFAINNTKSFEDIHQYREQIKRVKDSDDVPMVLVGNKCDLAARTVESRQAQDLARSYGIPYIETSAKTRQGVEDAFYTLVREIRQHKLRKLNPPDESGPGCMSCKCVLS

For “human NF1 catalytic domain fusion protein”, the “GTPase activity of H-Ras (GAP assay)” value was “All three fusion proteins stimulated the GTPase activity of H-Ras”.
